Test results: publication PMC2481281

Assays:
[1] = biological target: CXCL12γ protein, chemically synthesized (γ-wt) (mouse); experiment: SDS-PAGE and immunoblot; chemically synthesized chemokines separated by SDS-PAGE and probed with the K15C mAb; dimeric forms seen
[2] = biological target: CXCR7 on CXCR7-transduced A0.01 cells (UniProt P25106); experiment: flow cytometry on cells; competition: 1 nM α-biot on CXCR7-transduced A0.01 cells with increasing concentrations of untagged chemokine, washed, labelled with 1 µg/ml streptavidin-PE; normalised to binding without competitor; one-site non-linear regression
Chain of UniProt P25106 (P25106 whole entry): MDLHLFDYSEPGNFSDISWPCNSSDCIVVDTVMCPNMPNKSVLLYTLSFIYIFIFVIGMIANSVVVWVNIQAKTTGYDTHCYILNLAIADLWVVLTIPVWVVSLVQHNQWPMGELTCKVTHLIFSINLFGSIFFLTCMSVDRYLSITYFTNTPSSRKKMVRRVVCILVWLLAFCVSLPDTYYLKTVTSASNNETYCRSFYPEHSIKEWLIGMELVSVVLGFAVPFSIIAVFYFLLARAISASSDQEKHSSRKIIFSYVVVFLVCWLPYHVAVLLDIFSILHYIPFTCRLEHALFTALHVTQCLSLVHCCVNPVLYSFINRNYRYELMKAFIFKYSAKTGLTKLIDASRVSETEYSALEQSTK

[3] = biological target: α-wt C9 (CXCL12α with C-terminal bovine rhodopsin C9 tag) (mouse) (UniProt P40224); experiment: SDS-PAGE and immunoblot; lysates of SFV-infected BHK cells separated by SDS-PAGE and probed with the K15C mAb; dimeric forms seen
[4] = biological target: γ-wt C9 (CXCL12γ with C-terminal bovine rhodopsin C9 tag) (mouse); experiment: as above

Q: How did the stoichiometry N [1] turn out when “CXCL12γ protein, chemically synthesized (γ-wt) (ligand)” was run?
A: 2

Q: And the IC50 [2]?
A: 10.4 nM

Q: How did the stoichiometry N [3] turn out when “α-wt C9 (CXCL12α with C-terminal bovine rhodopsin C9 tag) (from UniProt P40224-2 22-93) (ligand)” was run?
A: 2

Q: “γ-wt C9 (CXCL12γ with C-terminal bovine rhodopsin C9 tag) (ligand)” was tested. Which stoichiometry N [4] did it give?
A: 2
